Laboratory results as given in EP1127148B1.

Molecular target: TAG-72 positive bovine submaxillary mucin (BSM) (bovine)
Assay: relative affinity constant from competition RIA on BSM

## humanized monoclonal antibody CC49 (HuCC49)
  Ka: 3.2e+08 M⁻¹
